Tests used:
Assay in all cases: SEC; SufBCD complexes co-expressed in E. coli and co-purified on Phenyl FF, Q XL and Sephacryl S-200; eluted from gel filtration at about 160 kDa; subunit composition checked by SDS-PAGE of the purified sample
Details in all cases: both partners purified
[1] = target: T1, SufB^R226A (Escherichia coli, UniProt P77522 1-495, SufB^R226A)
T1 construct: SufB of the Escherichia coli sufABCDSE operon
T1 sequence: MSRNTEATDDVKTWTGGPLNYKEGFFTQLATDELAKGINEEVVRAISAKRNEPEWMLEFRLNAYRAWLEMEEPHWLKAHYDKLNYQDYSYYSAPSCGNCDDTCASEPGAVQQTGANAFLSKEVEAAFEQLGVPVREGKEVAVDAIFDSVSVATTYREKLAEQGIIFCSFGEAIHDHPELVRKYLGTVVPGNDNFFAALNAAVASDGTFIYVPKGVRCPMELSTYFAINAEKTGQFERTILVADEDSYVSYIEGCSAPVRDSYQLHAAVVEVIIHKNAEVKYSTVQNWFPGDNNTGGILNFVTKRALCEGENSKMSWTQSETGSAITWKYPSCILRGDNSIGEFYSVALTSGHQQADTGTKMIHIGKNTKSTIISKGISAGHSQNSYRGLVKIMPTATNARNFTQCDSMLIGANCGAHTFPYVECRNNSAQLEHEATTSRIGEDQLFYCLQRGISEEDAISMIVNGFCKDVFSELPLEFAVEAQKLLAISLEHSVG

[2] = target: T2, SufB^N228A (Escherichia coli, UniProt P77522 1-495, SufB^N228A)
T2 construct: SufB of the Escherichia coli sufABCDSE operon
T2 sequence: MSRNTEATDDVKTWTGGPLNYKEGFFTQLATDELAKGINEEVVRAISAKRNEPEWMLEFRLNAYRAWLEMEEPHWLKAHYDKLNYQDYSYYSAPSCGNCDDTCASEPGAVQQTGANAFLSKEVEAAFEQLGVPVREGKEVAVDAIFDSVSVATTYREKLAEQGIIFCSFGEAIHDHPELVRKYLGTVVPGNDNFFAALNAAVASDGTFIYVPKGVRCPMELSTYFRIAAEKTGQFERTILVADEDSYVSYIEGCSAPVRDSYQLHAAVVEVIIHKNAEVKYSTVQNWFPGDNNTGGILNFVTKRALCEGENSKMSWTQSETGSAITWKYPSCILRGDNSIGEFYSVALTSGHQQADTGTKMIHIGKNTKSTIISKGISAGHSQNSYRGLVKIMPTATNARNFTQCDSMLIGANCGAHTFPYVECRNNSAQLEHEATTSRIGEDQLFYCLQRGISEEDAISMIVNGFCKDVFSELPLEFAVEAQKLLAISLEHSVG

[3] = target: T3, SufB^Q285A (Escherichia coli, UniProt P77522 1-495, SufB^Q285A)
T3 construct: SufB of the Escherichia coli sufABCDSE operon; source: pBBR-sufAB carrying the mutation, in bacterial extract
T3 sequence: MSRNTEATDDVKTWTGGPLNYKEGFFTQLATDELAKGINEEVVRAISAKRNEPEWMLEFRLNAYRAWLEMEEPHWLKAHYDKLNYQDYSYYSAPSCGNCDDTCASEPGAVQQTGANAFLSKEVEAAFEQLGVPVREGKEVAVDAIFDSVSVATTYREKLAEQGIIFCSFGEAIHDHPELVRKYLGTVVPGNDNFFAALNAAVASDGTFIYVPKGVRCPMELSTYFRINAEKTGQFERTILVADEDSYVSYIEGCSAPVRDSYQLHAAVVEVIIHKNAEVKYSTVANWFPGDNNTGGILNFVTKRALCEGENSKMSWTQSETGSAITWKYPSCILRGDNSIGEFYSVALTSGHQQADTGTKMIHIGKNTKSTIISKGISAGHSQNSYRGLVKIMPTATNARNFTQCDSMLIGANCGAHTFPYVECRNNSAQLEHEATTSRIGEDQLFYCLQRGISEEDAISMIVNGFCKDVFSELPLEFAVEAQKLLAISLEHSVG

[4] = target: T4, SufB^C405A (Escherichia coli, UniProt P77522 1-495, SufB^C405A)
T4 construct: SufB of the Escherichia coli sufABCDSE operon
T4 sequence: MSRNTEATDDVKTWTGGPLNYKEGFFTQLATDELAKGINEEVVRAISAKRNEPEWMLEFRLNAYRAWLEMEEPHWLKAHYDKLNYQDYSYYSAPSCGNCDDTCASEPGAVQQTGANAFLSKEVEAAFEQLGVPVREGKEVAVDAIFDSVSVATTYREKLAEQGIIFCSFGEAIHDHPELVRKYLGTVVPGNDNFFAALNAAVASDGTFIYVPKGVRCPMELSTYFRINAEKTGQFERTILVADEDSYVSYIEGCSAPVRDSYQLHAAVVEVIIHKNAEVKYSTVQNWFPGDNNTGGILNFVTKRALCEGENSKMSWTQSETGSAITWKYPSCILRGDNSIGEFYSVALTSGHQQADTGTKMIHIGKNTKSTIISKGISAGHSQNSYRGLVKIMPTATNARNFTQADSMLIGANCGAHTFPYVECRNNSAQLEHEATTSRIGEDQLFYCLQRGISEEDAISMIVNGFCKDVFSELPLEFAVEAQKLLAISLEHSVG

Measured: binding result

B1: SufC (natural protein, Escherichia coli)
chain: MLSIKDLHVSVEDKAILRGLSLDVHPGEVHAIMGPNGSGKSTLSATLAGREDYEVTGGTVEFKGKDLLALSPEDRAGEGIFMAFQYPVEIPGVSNQFFLQTALNAVRSYRGQETLDRFDFQDLMEEKIALLKMPEDLLTRSVNVGFSGGEKKRNDILQMAVLEPELCILDESDSGLDIDALKVVADGVNSLRDGKRSFIIVTHYQRILDYIKPDYVHVLYQGRIVKSGDFTLVKQLEEQGYGWLTEQQ
notes: SufC of the Escherichia coli sufABCDSE operon; also called SufC subunit of the SufBCD complex
binds: all assays above

B2: SufD (natural protein, Escherichia coli)
chain: MAGLPNSSNALQQWHHLFEAEGTKRSPQAQQHLQQLLRTGLPTRKHENWKYTPLEGLINSQFVSIAGEISPQQRDALALTLDSVRLVFVDGRYVPALSDATEGSGYEVSINDDRQGLPDAIQAEVFLHLTESLAQSVTHIAVKRGQRPAKPLLLMHITQGVAGEEVNTAHYRHHLDLAEGAEATVIEHFVSLNDARHFTGARFTINVAANAHLQHIKLAFENPLSHHFAHNDLLLAEDATAFSHSFLLGGAVLRHNTSTQLNGENSTLRINSLAMPVKNEVCDTRTWLEHNKGFCNSRQLHKTIVSDKGRAVFNGLINVAQHAIKTDGQMTNNNLLMGKLAEVDTKPQLEIYADDVKCSHGATVGRIDDEQIFYLRSRGINQQDAQQMIIYAFAAELTEALRDEGLKQQVLARIGQRLPGGAR
notes: SufD of the Escherichia coli sufABCDSE operon; One SufD per SufBCD complex (1:2:1); also called SufD subunit of the SufBCD complex
binds: all assays above

Source: paper PMC5571166, “Mapping the key residues of SufB and SufD essential for biosynthesis of iron-sulfur clusters” (Scientific Reports, 2017)
